Measurements published in PMC10415143.

Experiments:
[1] = target: ALPH1ΔN (amino acids 222-734), recombinant (T. brucei); test: SEC-MALS; 100 µl injected at 5 mg/ml on Superdex 200 Increase 10/300 GL, 15°C, 0.4 ml/min, PBS buffer
[2] = target: Full length ALPH1 (amino acid 1-734), recombinant (T. brucei); test: as above

| stoichiometry N [2] | Substance | stoichiometry N [1] |
| --- | --- | --- |
| – | ALPH1ΔN (amino acids 222-734), recombinant (domain or fragment) | 2 |
| 2 | Full length ALPH1 (amino acid 1-734), recombinant (enzyme) | – |
